We go through 1 molecule from US20050267025A1, “Compositions and methods for treatment of infectious and inflammatory diseases” (priority 2002, published 2005).

The test system of this test is human monocytes. The class given is cell-based.

B1: Rv0577: ~32 kDa IL-10 producing protein encoded by Rv0577 (cfp32), SEQ ID NO: 2 (protein, listed as Mycobacterium tuberculosis)
chain: MPKRSEYRQGTPNWVDLQTTDQSAAKKFYTSLFGWGYDDNPVPGGGGVYSMATLNGEAVAAIAPMPPGAPEGMPPIWNTYIAVDDVDAVVDKVVPGGGQVMMPAFDIGDAGRMSFITDPTGAAVGLWQANRHIGATLVNETGTLIWNELLTDKPDLALAFYEAVVGLTHSSMEIAAGQNYRVLKAGDAEVGGCMEPPMPGVPNHWHVYFAVDDADATAAKAAAAGGQVIAEPADIPSVGRFAVLSDPQGAIFSVLKPAPQQ
As for B1, the “IL-10 inducing activity of Mtb attributed to Rv0577” value is recorded as about 60%.
